Data on one substance can be found in paper PMC7145421.

The target of the assay is PKR (endogenous) (UniProt Q03963). Description: FLAG co-immunoprecipitation, western blot. The note with it: reference: FLAG-WT PACT; sites S246.

With “PACT (FLAG-tagged wild type and mutant constructs) (from UniProt O75569) FLAG-S246A PACT”, the “binding against the reference” value is “weaker”.
